Measured values reported in US20220195407, “OPTIMIZATION OF ENGINEERED MEGANUCLEASES FOR RECOGNITION SEQUENCES” (Precision BioSciences, Inc., published 2022).

Experiments:
Assay in all cases: cell_activity; CHO iGFFP reporter
LOX 3-4m.1052 = target: T1, LOX 3-4m.1052 (artificial (I-CreI derived))
T1 chain: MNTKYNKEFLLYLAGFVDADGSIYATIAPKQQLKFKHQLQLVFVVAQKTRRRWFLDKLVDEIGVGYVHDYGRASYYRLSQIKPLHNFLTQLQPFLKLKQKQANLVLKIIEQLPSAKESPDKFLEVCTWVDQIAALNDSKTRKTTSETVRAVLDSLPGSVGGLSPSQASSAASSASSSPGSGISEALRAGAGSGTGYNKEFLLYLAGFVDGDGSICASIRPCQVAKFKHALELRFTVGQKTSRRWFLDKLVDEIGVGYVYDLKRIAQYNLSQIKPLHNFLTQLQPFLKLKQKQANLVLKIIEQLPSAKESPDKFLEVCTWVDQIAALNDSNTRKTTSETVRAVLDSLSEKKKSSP
Description: (§1) A CHO cell reporter system (see WO/2012/167192, FIG. 3) was used to determine whether the engineered meganucleases generated in these studies could recognize and cleave the modified LOX 3-4 recognition sequences in Table 87. To perform the assay, a pair of CHO cell reporter lines were produced, which carried a non-functional Green Fluorescent Protein (GFP) gene expression cassette integrated into the genome of the cell. The GFP gene in each cell line was interrupted by a pair of recognition sequences such that intracellular cleavage of either recognition sequence by a meganuclease would stimulate a homologous recombination event resulting in a functional GFP gene. In both cell lines, one of the recognition sequences was derived from the LOX 3-4 recognition sequence (i.e., those sequences disclosed in Table 87), and the second recognition sequence was specifically recognized by a control meganuclease called “CHO 23/24.” CHO reporter cells comprising a recognition sequence derived from the LOX 3-4 recognition sequence and the CHO 23/24 recognition sequence are referred to herein as “test cells.”
(§2) Novel engineered meganucleases derived from the LOX 3-4x.109 meganuclease were prepared by making amino acid substitutions at one or more positions in the first subunit and one or more positions in the second subunit. These engineered meganucleases were then evaluated for cleavage of the LOX 3-4 recognition sequence modified to have an ACGC center sequence (SEQ ID NO: 90) in the CHO reporter assay according to Example 1.

LOX 3-4m.1069 = target: T2, LOX 3-4m.1069 (artificial (I-CreI derived))
T2 chain: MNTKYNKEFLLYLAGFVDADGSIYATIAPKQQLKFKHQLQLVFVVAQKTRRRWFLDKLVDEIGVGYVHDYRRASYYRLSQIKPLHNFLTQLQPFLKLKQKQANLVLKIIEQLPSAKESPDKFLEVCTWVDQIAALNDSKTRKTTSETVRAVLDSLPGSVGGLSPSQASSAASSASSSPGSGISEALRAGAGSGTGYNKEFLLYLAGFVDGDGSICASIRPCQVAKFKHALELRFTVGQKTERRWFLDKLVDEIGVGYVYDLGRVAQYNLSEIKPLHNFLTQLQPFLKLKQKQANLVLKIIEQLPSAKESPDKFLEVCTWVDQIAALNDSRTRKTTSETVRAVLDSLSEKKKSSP
Description: as §1, §2

LOX 3-4m.1123 = target: T3, LOX 3-4m.1123 (artificial (I-CreI derived))
T3 chain: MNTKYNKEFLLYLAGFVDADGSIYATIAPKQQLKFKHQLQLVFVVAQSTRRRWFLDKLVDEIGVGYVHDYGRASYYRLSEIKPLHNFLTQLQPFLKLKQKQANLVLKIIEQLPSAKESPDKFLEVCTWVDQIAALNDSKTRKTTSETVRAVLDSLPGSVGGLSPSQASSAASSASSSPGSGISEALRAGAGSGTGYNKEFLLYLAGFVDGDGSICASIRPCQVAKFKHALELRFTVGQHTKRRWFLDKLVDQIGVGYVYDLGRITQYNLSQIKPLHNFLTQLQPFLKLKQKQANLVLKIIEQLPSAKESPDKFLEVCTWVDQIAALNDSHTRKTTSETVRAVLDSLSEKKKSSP
Description: as §1, §2

LOX 3-4m.1125 = target: T4, LOX 3-4m.1125 (artificial (I-CreI derived))
T4 chain: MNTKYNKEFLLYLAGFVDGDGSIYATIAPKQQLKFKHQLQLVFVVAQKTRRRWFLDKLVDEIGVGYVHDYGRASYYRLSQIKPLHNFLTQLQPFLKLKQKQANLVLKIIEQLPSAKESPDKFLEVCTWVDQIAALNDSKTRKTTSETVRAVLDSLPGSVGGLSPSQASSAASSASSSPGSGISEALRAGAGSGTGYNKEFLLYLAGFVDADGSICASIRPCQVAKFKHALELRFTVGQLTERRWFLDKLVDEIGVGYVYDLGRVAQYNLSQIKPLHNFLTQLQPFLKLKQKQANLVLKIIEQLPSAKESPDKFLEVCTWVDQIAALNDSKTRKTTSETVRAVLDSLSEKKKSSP
Description: as §1, §2

LOX 3-4m.1153 = target: T5, LOX 3-4m.1153 (artificial (I-CreI derived))
T5 chain: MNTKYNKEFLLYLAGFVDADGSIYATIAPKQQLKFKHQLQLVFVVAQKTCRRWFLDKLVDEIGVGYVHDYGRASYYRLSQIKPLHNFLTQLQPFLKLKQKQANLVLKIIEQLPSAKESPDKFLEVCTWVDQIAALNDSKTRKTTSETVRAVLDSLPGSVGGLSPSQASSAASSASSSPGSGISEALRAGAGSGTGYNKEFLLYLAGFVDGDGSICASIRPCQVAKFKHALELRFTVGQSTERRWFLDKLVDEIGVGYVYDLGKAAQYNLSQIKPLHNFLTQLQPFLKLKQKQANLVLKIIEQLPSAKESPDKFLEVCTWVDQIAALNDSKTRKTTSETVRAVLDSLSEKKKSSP
Description: as §1
as §2, with “ACGT” for “ACGC”, “136)” for “90)”

LOX 3-4m.1158 = target: T6, LOX 3-4m.1158 (artificial (I-CreI derived))
T6 chain: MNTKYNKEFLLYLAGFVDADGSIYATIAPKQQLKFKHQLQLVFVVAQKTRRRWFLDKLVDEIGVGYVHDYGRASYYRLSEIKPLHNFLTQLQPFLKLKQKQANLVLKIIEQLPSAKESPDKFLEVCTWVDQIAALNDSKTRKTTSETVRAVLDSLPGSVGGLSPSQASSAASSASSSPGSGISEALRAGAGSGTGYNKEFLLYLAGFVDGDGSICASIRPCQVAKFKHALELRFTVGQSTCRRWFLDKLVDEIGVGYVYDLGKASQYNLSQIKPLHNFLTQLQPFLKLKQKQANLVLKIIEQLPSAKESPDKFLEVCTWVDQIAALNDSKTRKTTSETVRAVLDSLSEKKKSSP
Description: as §1
as §2, with “ACGT” for “ACGC”, “136)” for “90)”

LOX 3-4m.1225 = target: T7, LOX 3-4m.1225 (artificial (I-CreI derived))
T7 chain: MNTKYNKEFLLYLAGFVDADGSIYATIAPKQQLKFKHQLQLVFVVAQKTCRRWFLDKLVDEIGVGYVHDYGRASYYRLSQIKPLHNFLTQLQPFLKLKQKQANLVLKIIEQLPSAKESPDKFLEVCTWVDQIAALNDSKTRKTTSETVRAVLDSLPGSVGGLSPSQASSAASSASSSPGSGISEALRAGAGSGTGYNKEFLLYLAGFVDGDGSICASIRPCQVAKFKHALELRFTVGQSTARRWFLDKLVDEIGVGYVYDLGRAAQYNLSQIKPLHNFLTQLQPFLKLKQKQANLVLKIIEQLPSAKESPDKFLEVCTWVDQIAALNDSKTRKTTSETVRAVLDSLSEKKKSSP
Description: as §1
as §2, with “ACGT” for “ACGC”, “136)” for “90)”

LOX 3-4m.1206 = target: T8, LOX 3-4m.1206 (artificial (I-CreI derived))
T8 chain: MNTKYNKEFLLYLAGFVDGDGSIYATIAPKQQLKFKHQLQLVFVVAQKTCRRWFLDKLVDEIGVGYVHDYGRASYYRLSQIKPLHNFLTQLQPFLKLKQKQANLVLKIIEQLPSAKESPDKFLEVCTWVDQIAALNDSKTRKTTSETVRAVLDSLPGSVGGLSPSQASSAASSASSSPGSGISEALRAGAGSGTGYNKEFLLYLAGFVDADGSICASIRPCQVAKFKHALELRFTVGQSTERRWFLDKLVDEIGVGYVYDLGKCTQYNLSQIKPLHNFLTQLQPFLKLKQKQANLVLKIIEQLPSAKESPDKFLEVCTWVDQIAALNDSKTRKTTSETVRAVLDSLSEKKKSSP
Description: as §1
as §2, with “ACGT” for “ACGC”, “136)” for “90)”

LOX 3-4m.1876 = target: T9, LOX 3-4m.1876 (artificial (I-CreI derived))
T9 chain: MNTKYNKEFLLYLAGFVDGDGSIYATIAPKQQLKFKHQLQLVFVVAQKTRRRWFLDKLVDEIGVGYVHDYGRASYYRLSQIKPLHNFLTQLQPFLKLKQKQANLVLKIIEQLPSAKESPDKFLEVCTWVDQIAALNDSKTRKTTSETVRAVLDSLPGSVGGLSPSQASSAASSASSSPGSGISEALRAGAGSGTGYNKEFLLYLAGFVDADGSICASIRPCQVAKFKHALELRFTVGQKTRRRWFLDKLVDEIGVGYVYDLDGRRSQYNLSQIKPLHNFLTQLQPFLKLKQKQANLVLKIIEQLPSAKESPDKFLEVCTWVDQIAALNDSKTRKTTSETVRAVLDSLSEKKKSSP
Description: as §1
(§3) Novel engineered meganucleases derived from the LOX 3-4x.109 meganuclease were prepared by making amino acid substitutions at one or more positions in the first subunit and one or more positions in the second subunit. In addition, an R residue was inserted following position 264, which corresponds to position 73 of wild-type I-CreI.

LOX 3-4m.1941 = target: T10, LOX 3-4m.1941 (artificial (I-CreI derived))
T10 chain: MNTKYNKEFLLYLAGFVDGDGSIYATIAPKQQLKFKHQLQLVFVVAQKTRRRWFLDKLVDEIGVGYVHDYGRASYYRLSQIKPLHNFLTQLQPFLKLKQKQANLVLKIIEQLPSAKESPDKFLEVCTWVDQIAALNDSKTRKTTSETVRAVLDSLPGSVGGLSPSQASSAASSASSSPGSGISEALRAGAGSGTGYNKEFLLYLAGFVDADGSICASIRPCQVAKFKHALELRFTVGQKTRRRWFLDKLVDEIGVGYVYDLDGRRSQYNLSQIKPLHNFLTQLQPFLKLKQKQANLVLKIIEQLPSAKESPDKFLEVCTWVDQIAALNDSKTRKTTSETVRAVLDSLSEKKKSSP
Description: as §1, §3

LOX 3-4m.1947 = target: T11, LOX 3-4m.1947 (artificial (I-CreI derived))
T11 chain: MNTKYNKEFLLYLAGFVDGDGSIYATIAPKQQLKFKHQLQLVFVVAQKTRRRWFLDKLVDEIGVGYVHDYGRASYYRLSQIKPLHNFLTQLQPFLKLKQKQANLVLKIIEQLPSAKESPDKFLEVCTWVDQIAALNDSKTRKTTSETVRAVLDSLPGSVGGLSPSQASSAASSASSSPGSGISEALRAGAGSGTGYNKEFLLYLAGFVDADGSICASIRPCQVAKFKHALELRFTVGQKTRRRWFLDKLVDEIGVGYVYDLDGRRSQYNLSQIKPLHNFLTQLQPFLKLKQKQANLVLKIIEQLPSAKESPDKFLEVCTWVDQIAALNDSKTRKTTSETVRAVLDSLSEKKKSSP
Description: as §1, §3

LOX 3-4m.1946 = target: T12, LOX 3-4m.1946 (artificial (I-CreI derived))
T12 chain: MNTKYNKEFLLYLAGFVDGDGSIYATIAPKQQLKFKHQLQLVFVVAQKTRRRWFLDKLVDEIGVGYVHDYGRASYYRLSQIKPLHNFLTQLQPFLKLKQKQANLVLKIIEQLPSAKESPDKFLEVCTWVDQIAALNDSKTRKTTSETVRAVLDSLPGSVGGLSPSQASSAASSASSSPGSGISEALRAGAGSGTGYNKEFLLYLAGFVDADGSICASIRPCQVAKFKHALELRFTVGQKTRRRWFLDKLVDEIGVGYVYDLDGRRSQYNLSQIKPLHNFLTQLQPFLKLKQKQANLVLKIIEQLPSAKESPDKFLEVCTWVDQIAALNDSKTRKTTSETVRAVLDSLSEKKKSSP
Description: as §1, §3

B1: LOX 3-4 ACGC (dsDNA)
DNA 1: GTATAGCATACGCTATACGAAG
DNA 2: CTTCGTATAGCGTATGCTATAC
Binder B1 has an activity (LOX 3-4m.1052) of 9.34 % GFP, an activity (LOX 3-4m.1069) of 10.3 % GFP and an activity (LOX 3-4m.1123) of 9.56 % GFP. For the same binder, the activity (LOX 3-4m.1125) was 10.4 % GFP.

B2: LOX 3-4 ACGT (dsDNA)
DNA 1: GTATAGCATACGTTATACGAAG
DNA 2: CTTCGTATAACGTATGCTATAC
B2 was tested, and the activity (LOX 3-4m.1153) was 10.3 % GFP, the activity (LOX 3-4m.1158) was 9.19 % GFP and the activity (LOX 3-4m.1225) was 10.6 % GFP. The activity (LOX 3-4m.1206) was 9.84 % GFP.

B3: LOX 3-4 ACGG (dsDNA)
DNA 1: GTATAGCATACGGTATACGAAG
DNA 2: CTTCGTATACCGTATGCTATAC
With B3 the activity (LOX 3-4m.1876) was 9.6 % GFP, the activity (LOX 3-4m.1941) was 10.1 % GFP and the activity (LOX 3-4m.1947) was 10.5 % GFP. It also gave an activity (LOX 3-4m.1946) of 10.8 % GFP.
